Data: paper PMC5165034 (2016)
Positions count from the first letter of the chain named.

Target: bromelain-released HA (BHA) of influenza X-31 (influenza A strain X-31 (H3N2))
Assay: BLI

B1: 2F4 HCAb (antibody, V domains shown)
VH: EVQLVESGGGLVKPGGSLRLSCAASGFAFSDYYMSWLRQAPGKGLEWVSYISSSGSNIYYADSVKGRFTISRDNAKNSLYLQMNSLRAEDTAVYYCARGAGVFDYLGQGGRGTLVTVSS
Binder B1 has a Kd of 5.6 nM.

B2: 1G11 HCAb (antibody, V domains shown)
VH: EVQLVESGGGLVKPGGSLRLSCAASGFTFSDYYMSWIRQTPGKGLEWVSYISSSGSNIYYADSVKGRFTISRDNAKNSLYLQMNSLRAEDTAVYYCARGISMARDSWGQGTLVTVSS
Binder B2 has a Kd of 2.9 nM.

B3: 1C12 HCAb (antibody, V domains shown)
VH: B2 VH with T40A, N57T, I100V, S101A, A103V, T114N
B3 gave a Kd of 1.8 nM.

B4: 3A8 HCAb (antibody, V domains shown)
VH: B2 VH with T40A, S56D, N57I, Y80F, A97T, I100V, M102L, A103V, S106Y, L112Q
Binder B4 has a Kd of 3.2 nM.

B5: 1F4 HCAb (antibody, V domains shown)
VH: B2 VH with T40A, N57T, I100V, S101K, M102L, A103T, R104E, S106D
B5 was tested, and the Kd was 6.6 nM.

B6: 7F2 HCAb (antibody, V domains shown)
VH: EVQLVESGGGLVKPGGSLRLSCAASGFTFSADYMSWIRQAPGKGLEWVSYISSSGSSIYYADSVKGRFTISRDNAKNSLYLQMNSLRAEDTAVYYCARGWFGESHSFDYWGQGTLVTVSS
For B6, the Kd was 35 nM.
